Laboratory results reported in patent publication US20230365662A1.
Substitutions are numbered along the chain they refer to. Numbers in names are those of the source. Where “and” joins values, the source holds several entries; their conditions need not be identical. Equal entries are not always repeated.

Experiments:
[1] = molecular target: HRgpA-6H (Porphyromonas gingivalis) (UniProt P28784); experiment: ELISA on coated HRgpA-6H (coating concentration not stated); secondary Mouse Anti-Human IgG, F(ab')2
Sequence of UniProt P28784 (P28784 228-991 limits assumed): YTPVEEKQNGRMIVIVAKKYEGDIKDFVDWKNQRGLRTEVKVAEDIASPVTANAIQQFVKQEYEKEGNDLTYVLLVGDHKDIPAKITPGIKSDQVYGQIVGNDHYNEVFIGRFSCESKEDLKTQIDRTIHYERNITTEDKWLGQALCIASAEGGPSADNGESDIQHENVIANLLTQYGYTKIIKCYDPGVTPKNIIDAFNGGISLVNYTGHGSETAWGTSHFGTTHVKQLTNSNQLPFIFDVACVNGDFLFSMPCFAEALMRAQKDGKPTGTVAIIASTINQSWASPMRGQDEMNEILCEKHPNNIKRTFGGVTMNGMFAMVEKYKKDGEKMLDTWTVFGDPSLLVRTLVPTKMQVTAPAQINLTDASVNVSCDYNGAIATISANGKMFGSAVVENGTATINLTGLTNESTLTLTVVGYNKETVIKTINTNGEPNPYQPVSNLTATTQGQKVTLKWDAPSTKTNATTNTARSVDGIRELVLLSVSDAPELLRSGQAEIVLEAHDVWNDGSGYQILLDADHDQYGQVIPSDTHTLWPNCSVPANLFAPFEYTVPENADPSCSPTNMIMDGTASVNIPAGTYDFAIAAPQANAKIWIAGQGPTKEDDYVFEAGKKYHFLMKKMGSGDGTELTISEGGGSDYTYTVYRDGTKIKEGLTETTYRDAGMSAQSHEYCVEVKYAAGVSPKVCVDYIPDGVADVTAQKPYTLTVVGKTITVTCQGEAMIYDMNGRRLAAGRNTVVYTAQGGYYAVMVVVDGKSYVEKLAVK

[2] = molecular target: HRgpA-6H (Porphyromonas gingivalis) (UniProt P28784); experiment: ELISA on coated HRgpA-6H (coating concentration not stated); secondary Goat Anti-Human IgG (H+L)
[3] = molecular target: HRgpA-6H (Porphyromonas gingivalis) (UniProt P28784); experiment: ELISA on coated HRgpA-6H (coating concentration not stated); secondary Anti-BSA (HRP)
[4] = molecular target: HRgpA-6H (Porphyromonas gingivalis) (UniProt P28784); experiment: ELISA on coated HRgpA-6H (coating concentration not stated); secondary Goat Anti-Human IgG, F(ab')2
[5] = molecular target: Porphyromonas gingivalis strain W83 whole cells (surface gingipain/adhesin/hemagglutinin complex)
[6] = molecular target: Porphyromonas gingivalis strain W83 whole cells (surface gingipain/adhesin/hemagglutinin complex); experiment: scanning electron microscopy, gold-labelled KB001
[7] = molecular target: P. gingivalis laboratory strains, serotypes and human clinical isolates (whole cells); experiment: immunogold SEM
[8] = molecular target: HRgpA-6H (Porphyromonas gingivalis) (UniProt P28784); experiment: ELISA, HRgpA-6H coated 0.25 ug/ml; mouse Fab FASEBA supernatant; Goat Anti-MOUSE IgG (Fab specific) [HRP]
[9] = molecular target: HRgpA-6H (Porphyromonas gingivalis) (UniProt P28784); experiment: ELISA, HRgpA-6H coated 2 ug/ml; mouse Fab FASEBA supernatant; Goat Anti-MOUSE IgG (Fab specific) [HRP]
[10] = molecular target: HRgpA-6H (Porphyromonas gingivalis) (UniProt P28784); experiment: ELISA, HRgpA-6H coated 0.5 ug/ml; mouse Fab FASEBA supernatant; Goat Anti-MOUSE IgG (Fab specific) [HRP]
[11] = molecular target: HRgpA-6H (Porphyromonas gingivalis) (UniProt P28784); experiment: ELISA, HRgpA-6H coated 0.0625 ug/ml; mouse Fab FASEBA supernatant; Goat Anti-MOUSE IgG (Fab specific) [HRP]
[12] = molecular target: HRgpA-6H (Porphyromonas gingivalis) (UniProt P28784); experiment: ELISA, HRgpA-6H coated 1 ug/ml; mouse Fab FASEBA supernatant; Goat Anti-MOUSE IgG (Fab specific) [HRP]
[13] = molecular target: HRgpA-6H (Porphyromonas gingivalis) (UniProt P28784); experiment: ELISA, HRgpA-6H coated 0.125 ug/ml; mouse Fab FASEBA supernatant; Goat Anti-MOUSE IgG (Fab specific) [HRP]
[14] = molecular target: HRgpA-6H (Porphyromonas gingivalis) (UniProt P28784); experiment: ELISA, Fab FASEBA supernatant on coated HRgpA-6H (0.0625 ug/ml)

non-related FASEBA supernatant (NC) (Fab)
OD450 [1]: 0.552 and 0.288
OD450 [2]: 1.15 and 0.736
OD450 [3]: 1.09
OD450 [4]: 0.672

B1: KB001 (antibody, V domains shown)
VH: EVQLKQSGPGLVAPSQSLSITCTVSGFSLSIYSVHWVRQPPGKGLEWLGMIWGGGSSDYNSALKSRLSISKDNSKSQVFLKMNSLQTDDTAMYYCARNGNFYAMDYWGQGTSVTVSS
VL: QIVLTQSPAIMSASLGERVTMTCTASSSVSSSFLHWYQQKPGSSPQLWIYSTSNLASGVPARFSGSGSGTSYSLTISSMEAEDAATYYCHQYHHSPYIYTFGGGTKLEIKR
Kd [5]: 11.4 nM
Response [5]: 0.216 and 0.186 and 0.297
koff [5]: 0.000219 s⁻¹
kon [5]: 19200 M⁻¹ s⁻¹
IgG molecules bound per bacteria (molecules per bacterium) [6]: 60 and 80
average labeled density [7]: 50 µm^-2

B2: parental mouse Fab FASEBA sample (Fab, V domains shown)
VH: B1 VH
VL: B1 VL
OD450 [8]: 1.58 and 1.51
OD450 [9]: 2.04 and 1.98
OD450 [10]: 1.76 and 1.82
OD450 [11]: 0.755 and 0.687
OD450 [12]: 1.94 and 2.02
OD450 [13]: 1.17 and 1.13

B3: KB001 parental mouse Fab VH variant A103L (Fab, V domains shown)
VH: B1 VH with A103L
VL: QIVLTQSPAIMSASLGERVTMTCTASSSVSSSFLHWYQQKPGSSPQLWIYSTSNLASGVPARFSGSGSGTSYSLTISSMEAEDAATYYCHQYHHSPYIYTFGGGTKLEIK
OD450nm [14]: 0.783
Ratio OD(Variant)/OD(WT) [14]: 0.908

B4: KB001 parental mouse Fab VH variant A103M (Fab, V domains shown)
VH: B1 VH with A103M
VL: B3 VL
OD450nm [14]: 0.811
Ratio OD(Variant)/OD(WT) [14]: 0.941

B5: KB001 parental mouse Fab VH variant A103K (Fab, V domains shown)
VH: B1 VH with A103K
VL: B3 VL
OD450nm [14]: 0.723
Ratio OD(Variant)/OD(WT) [14]: 0.839

B6: KB001 parental mouse Fab VH variant A103I (Fab, V domains shown)
VH: B1 VH with A103I
VL: B3 VL
OD450nm [14]: 0.695 and 0.693
Ratio OD(Variant)/OD(WT) [14]: 0.806 and 0.804

B7: KB001 parental mouse Fab VH variant A103C (Fab, V domains shown)
VH: B1 VH with A103C
VL: B3 VL
OD450nm [14]: 0.77
Ratio OD(Variant)/OD(WT) [14]: 0.893

B8: KB001 parental mouse Fab VH variant M104L (Fab, V domains shown)
VH: B1 VH with M104L
VL: B3 VL
OD450nm [14]: 0.786
Ratio OD(Variant)/OD(WT) [14]: 0.904

B9: KB001 parental mouse Fab (WT) (Fab, V domains shown)
VH: B1 VH
VL: B3 VL
OD450nm [14]: 0.831
Ratio OD(Variant)/OD(WT) [14]: 0.956

B10: KB001 parental mouse Fab VH variant Y106Q (Fab, V domains shown)
VH: B1 VH with Y106Q
VL: B3 VL
OD450nm [14]: 0.768
Ratio OD(Variant)/OD(WT) [14]: 0.999

B11: KB001 parental mouse Fab VH variant Y106I (Fab, V domains shown)
VH: B1 VH with Y106I
VL: B3 VL
OD450nm [14]: 0.73 and 0.728 and 0.764
Ratio OD(Variant)/OD(WT) [14]: 0.949 and 0.947 and 0.993

B12: KB001 parental mouse Fab VH variant Y106H (Fab, V domains shown)
VH: B1 VH with Y106H
VL: B3 VL
OD450nm [14]: 0.722
Ratio OD(Variant)/OD(WT) [14]: 0.939

B13: KB001 parental mouse Fab VH variant Y106W (Fab, V domains shown)
VH: B1 VH with Y106W
VL: B3 VL
OD450nm [14]: 0.733 and 0.748
Ratio OD(Variant)/OD(WT) [14]: 0.953 and 0.973

B14: KB001 parental mouse Fab VH variant Y106D (Fab, V domains shown)
VH: B1 VH with Y106D
VL: B3 VL
OD450nm [14]: 0.675
Ratio OD(Variant)/OD(WT) [14]: 0.878

B15: KB001 parental mouse Fab VH variant Y106K (Fab, V domains shown)
VH: B1 VH with Y106K
VL: B3 VL
OD450nm [14]: 0.767
Ratio OD(Variant)/OD(WT) [14]: 0.997

B16: KB001 parental mouse Fab VH variant M104V (Fab, V domains shown)
VH: B1 VH with M104V
VL: B3 VL
OD450nm [14]: 0.654
Ratio OD(Variant)/OD(WT) [14]: 0.85
